The target of assay [1] is Gβ1 and YFP-Gγ2 expressed from the Gβ1-2A-YFP-Gγ2 unit. Briefly: FRET or BRET; FLIM of the mTurquoise donor (phase and modulation lifetimes) in living HeLa cells, room temperature; all three subunits from the single plasmid Gα-IRES-Gβ-2A-Gγ. Background: Bioluminescence resonance energy transfer reports proximity on the nanometre scale.
The target is the same in assay [2]. The assay is described as follows: FRET or BRET; FLIM of the mTurquoise donor (phase and modulation lifetimes) in living HeLa cells, room temperature; all three subunits from the single plasmid Gβ-2A-Gγ-IRES-Gα.

In assay [1], “Gαq-mTurquoiseΔ6 (from UniProt P50148 1-359) (natural protein)” showed an FRET efficiency from the modulation lifetime (E τM) of 7% and an FRET efficiency from the phase lifetime (E τϕ) of 14%. In assay [2], this substance registered an FRET efficiency from the modulation lifetime (E τM) of 19% and an FRET efficiency from the phase lifetime (E τϕ) of 27%.
